Assays:
[1] = molecular target: T1, bovine serum albumin (bovine, UniProt P02769 25-607); experiment: SPR (Biacore 3000), immobilized BSA
T1 construct: also called BSA; Bovine albumin
Method: (§1) 1700 RUs of BSA (Sigma) were immobilized on research grad CM5-sensorchip (BIACORE). Ethanolamin blocked surface was used as a reference. Immobilizations were carried out at the protein concentrations of 50 µg/ml in 10 mM acetate pH 4.5 using amin coupling kit supplied by the manufacturer. Antibodies were passed through Superdex 75™ (GE Healthcare) column to separate monomer prior to BIACORE analysis.
(§2) In all instances, analyses were carried out at 25 C in HBS-E buffer (10 mM HEPES, 150 mM NaCl, and 3 mM EDTA, pH 7.4) supplemented with 0.005% surfactant P20 at a flow rate of 20 µl/min. The surfaces were regenerated with 100 mM HCl (3 seconds). Data were analyzed with BIAevaluation 4.1 software.

[2] = molecular target: T1, bovine serum albumin; experiment: SPR (Biacore 3000), immobilized BSA; remark: listed apart in the source
Method: as §1, §2

[3] = molecular target: T2, murine serum albumin (murine, UniProt P07724 25-608); experiment: SPR (Biacore 3000), immobilized albumin
T2 construct: also called Murine albumin
Method: as §1, §2

[4] = molecular target: T3, porcine serum albumin (porcine, UniProt P08835 25-607); experiment: SPR (Biacore 3000), immobilized albumin
T3 construct: also called Porcine albumin
T3 sequence (P08835 25-607 limits assumed): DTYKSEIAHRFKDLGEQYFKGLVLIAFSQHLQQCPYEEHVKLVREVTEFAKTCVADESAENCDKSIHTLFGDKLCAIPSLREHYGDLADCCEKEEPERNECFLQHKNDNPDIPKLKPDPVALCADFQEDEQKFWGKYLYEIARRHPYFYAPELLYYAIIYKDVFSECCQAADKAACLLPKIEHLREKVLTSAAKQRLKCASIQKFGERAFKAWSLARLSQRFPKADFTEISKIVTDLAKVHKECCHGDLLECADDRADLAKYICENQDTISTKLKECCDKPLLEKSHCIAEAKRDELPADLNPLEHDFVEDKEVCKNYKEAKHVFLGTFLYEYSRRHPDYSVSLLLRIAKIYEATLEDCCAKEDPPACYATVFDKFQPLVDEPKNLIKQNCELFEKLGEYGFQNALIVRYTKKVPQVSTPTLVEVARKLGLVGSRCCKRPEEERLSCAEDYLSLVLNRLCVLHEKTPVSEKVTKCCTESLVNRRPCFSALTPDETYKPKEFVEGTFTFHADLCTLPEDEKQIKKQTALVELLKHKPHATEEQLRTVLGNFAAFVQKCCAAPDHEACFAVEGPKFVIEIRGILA
Method: as §1, §2

[5] = molecular target: T4, sheep serum albumin (sheep, UniProt P14639 25-607); experiment: SPR (Biacore 3000), immobilized albumin
T4 construct: also called Sheep albumin
T4 sequence (P14639 25-607 limits assumed): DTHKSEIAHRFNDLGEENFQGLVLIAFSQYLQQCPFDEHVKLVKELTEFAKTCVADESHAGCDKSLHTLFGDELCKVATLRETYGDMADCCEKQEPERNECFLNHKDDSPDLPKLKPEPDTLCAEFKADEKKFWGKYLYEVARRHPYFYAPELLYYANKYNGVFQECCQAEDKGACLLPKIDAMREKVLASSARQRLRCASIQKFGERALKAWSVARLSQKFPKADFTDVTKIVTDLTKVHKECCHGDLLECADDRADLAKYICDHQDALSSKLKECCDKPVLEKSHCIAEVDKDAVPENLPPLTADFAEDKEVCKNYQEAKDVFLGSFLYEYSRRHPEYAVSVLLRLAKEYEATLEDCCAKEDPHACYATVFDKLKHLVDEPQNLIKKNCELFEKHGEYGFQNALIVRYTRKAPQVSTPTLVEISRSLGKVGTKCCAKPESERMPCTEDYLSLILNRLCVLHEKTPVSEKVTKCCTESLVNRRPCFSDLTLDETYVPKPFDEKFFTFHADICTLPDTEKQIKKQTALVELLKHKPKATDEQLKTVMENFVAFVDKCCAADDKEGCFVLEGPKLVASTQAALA
Method: as §1, §2

[6] = molecular target: T5, canine serum albumin (canine, UniProt P49822 25-608); experiment: SPR (Biacore 3000), immobilized albumin
T5 construct: also called Canine albumin
T5 sequence (P49822 25-608 limits assumed): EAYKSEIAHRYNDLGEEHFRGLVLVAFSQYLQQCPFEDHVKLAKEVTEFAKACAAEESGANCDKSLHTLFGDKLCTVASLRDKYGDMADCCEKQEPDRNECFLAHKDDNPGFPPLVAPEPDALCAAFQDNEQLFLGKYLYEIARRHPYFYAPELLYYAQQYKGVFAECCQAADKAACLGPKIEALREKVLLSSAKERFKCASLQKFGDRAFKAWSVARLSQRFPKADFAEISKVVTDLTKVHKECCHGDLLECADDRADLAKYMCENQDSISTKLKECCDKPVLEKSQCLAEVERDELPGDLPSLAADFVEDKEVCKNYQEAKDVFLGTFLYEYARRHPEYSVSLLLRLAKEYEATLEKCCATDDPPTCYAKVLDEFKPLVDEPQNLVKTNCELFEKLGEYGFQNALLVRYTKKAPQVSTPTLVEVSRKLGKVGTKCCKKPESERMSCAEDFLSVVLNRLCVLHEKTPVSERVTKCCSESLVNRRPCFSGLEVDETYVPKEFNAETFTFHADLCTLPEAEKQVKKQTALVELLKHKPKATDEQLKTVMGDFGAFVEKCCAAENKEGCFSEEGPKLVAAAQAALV
Method: as §1, §2

[7] = molecular target: T6, goat serum albumin (goat); experiment: SPR (Biacore 3000), immobilized albumin
T6 construct: also called Goat albumin
T6 sequence (P85295 whole entry, looked up): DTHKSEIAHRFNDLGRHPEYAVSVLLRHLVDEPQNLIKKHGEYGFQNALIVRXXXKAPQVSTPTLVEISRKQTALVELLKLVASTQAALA
Method: as §1, §2

[8] = molecular target: T7, guinea pig serum albumin (guinea pig); experiment: SPR (Biacore 3000), immobilized albumin
T7 construct: also called Guinea pig albumin
Method: as §1, §2

[9] = molecular target: T1, bovine serum albumin; experiment: SPR (Biacore 3000), immobilized albumin
Method: as §1, §2

[10] = molecular target: T1, bovine serum albumin; experiment: SPR (Biacore 3000), immobilized BSA, extended dissociation
Method: as §1, §2
(§3) Each binding was performed three times, and the obtained data were reproducible.

[11] = molecular target: T1, bovine serum albumin; experiment: SPR (Biacore 3000), immobilized BSA, 4 h dissociation time
Method: as §1, §2, §3

[12] = molecular target: T8, human serum albumin (human, UniProt P02768 25-609); experiment: SPR (Biacore 3000), immobilized albumin; lower bound of the printed KD range
T8 construct: also called Human albumin
T8 sequence (P02768 25-609 limits assumed): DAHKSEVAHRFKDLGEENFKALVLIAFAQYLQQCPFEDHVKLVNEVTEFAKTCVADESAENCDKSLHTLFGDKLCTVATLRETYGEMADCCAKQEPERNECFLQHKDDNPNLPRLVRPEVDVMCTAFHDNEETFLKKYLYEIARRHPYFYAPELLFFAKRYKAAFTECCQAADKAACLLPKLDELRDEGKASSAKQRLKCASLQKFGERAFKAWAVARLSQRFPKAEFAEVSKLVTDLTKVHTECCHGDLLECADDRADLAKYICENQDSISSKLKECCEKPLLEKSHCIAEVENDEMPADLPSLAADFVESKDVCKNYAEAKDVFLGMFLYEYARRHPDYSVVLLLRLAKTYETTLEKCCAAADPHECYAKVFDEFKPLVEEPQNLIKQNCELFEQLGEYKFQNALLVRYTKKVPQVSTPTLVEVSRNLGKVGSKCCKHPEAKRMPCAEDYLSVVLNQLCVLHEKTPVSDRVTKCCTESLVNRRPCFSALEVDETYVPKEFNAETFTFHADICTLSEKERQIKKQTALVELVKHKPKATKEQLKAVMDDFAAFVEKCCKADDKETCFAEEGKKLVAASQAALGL

[13] = molecular target: T8, human serum albumin; experiment: SPR (Biacore 3000), immobilized albumin; upper bound of the printed KD range

T1 sequence (P02769 25-607 limits assumed): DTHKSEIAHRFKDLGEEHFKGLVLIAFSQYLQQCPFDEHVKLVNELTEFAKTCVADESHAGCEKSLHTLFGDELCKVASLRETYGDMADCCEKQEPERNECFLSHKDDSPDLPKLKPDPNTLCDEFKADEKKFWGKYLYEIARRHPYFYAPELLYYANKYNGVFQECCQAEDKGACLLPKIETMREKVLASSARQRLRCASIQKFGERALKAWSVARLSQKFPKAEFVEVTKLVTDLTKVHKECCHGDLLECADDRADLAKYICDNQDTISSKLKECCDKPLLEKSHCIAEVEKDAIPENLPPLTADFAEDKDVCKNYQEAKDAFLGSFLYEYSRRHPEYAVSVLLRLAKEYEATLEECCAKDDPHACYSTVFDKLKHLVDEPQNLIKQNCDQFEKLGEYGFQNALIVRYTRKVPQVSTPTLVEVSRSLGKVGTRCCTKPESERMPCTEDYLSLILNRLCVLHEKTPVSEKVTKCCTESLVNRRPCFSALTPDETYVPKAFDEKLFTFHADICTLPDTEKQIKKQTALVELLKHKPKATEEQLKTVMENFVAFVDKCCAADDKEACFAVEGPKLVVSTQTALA

B1: BSA8 (VHH)
VHH: QVKLEESGGGLAQAGGSLRLSCAASERTFIRYTIGWFRQAPGKEREFVGRVNWSGGDTYYADSVKGRFTISRDNAKTTVTLQMSSLKPEDTAVYSCAASPKWSEIPREYIYWGPGTQVTVSS
notes: also called sdAb BSA8; pBSA8 product
Binder B1 has a koff [1] of 0.005 s⁻¹ and a Kd [2] of ~100 nM.

B2: BSA16 (VHH)
VHH: QVKLEESGGGLVQAGGSLRLSCAPSGRTFRTWRMGWFRQAPGKEREFVAAINLNTGNTYYVDSVKGRFTISGDYAKNTLYLQMNSLKPEDTAVYFCAARSPDSDYVPLSSIDYQYWGQGTQVTVSS
notes: also called sdAb BSA16; pBSA16 product
B2 gave a Kd [2] of 280 nM, a koff [2] of 0.27 s⁻¹ and a kon [2] of 1e+06 M⁻¹ s⁻¹.

B3: BSA12 (VHH)
VHH: QVKLEESGGGLVQVGDSLRLSCAASGRTFSNYTMAWFRQFPGKEREFVAVVSRGGGATDYADSVKGRFTISRDNAKNTMYLQMNSLKTDTAVYYCAAGTDLSYYYSTKKWAYWGQGTQVTVSS
notes: also called sdAb BSA12; pBSA12 product
With B3 the Kd [2] was 0.004 nM, the kon [2] was 2.5e+06 M⁻¹ s⁻¹ and the Kd [3] was 59 nM. For the same binder, the koff [3] was 0.16 s⁻¹, the kon [3] was 2.7e+06 M⁻¹ s⁻¹ and the Kd [4] was 380 nM. The koff [4] was 0.22 s⁻¹, the kon [4] was 680000 M⁻¹ s⁻¹ and the Kd [5] was 1000 nM. The Kd [6] was 1400 nM, the Kd [7] was 240 nM and the koff [7] was 0.3 s⁻¹. It also gave a kon [7] of 1.2e+06 M⁻¹ s⁻¹, a Kd [8] of 730 nM and a koff [8] of 0.6 s⁻¹. For the same binder, the kon [8] was 830000 M⁻¹ s⁻¹, the Kd [9] was 0.0036 nM and the koff [9] was 9e-06 s⁻¹. It also gave a kon [9] of 2.5e+06 M⁻¹ s⁻¹, a koff [10] of 1e-05 s⁻¹ and a koff [11] of 9e-06 s⁻¹. For the same binder, the Kd [12] was > 10000 nM and the Kd [13] was < 500000 nM.

Reference: patent publication US9327022 (NATIONAL RESEARCH COUNCIL OF CANADA, dated 2016)
